Patent US20170247475A1 (Boehringer Ingelheim, published 2017)
Changes are numbered by the printed parent chain. One block for each binder: values may come before it.

Experiments:
human PIGF = molecular target: T1, human PIGF (human, UniProt P49763-2 21-149, limits assumed); assay: solid phase binding ELISA
T1 construct: also called hPIGF; PLGF
T1 sequence (looked up): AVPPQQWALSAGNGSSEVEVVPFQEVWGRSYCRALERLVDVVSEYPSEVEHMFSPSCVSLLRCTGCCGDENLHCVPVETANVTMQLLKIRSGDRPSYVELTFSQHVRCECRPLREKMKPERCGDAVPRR
Protocol: (§1) Binding to VEGFB, VEGFC, VEGFD and PIGF is assessed via a solid phase binding ELISA. In brief, VEGFB, VEGFC, VEGFD and PIGF (R&D Systems, Minneapolis, Minn., USA) are coated overnight at 4° C. at 1 μg/mL in a 96-well MaxiSorp plate (Nunc, Wiesbaden, Germany). Wells are blocked with a casein solution (1% in PBS). […] As positive controls serial dilutions of the appropriate receptors are taken along and detected with horseradish peroxidase (HRP)-conjugated goat anti-human IgG, Fc specific antibody (Jackson Immuno Research Laboratories Inc., West Grove, Pa., USA) and a subsequent enzymatic reaction in the presence of the substrate TMB (3,3′,5,5′-tetramentylbenzidine) (Pierce, Rockford, Ill., USA).

human VEGF-B = molecular target: T2, human VEGF-B (human, UniProt P49765-2 22-188, limits assumed); assay: solid phase binding ELISA
T2 construct: also called hVEGF-B
T2 sequence (looked up): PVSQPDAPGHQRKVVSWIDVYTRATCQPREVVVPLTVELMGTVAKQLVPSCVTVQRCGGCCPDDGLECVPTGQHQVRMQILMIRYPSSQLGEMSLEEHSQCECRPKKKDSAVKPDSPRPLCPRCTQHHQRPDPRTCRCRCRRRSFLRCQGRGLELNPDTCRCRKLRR
Protocol: as §1

human VEGF-C = molecular target: T3, human VEGF-C (human, UniProt P49767 103-227); assay: solid phase binding ELISA
T3 construct: also called hVEGF-C
T3 sequence (looked up): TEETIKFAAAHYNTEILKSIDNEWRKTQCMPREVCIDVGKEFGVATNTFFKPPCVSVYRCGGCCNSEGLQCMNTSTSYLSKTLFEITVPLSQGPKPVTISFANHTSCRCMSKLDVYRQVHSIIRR
Protocol: as §1

human VEGF-D = molecular target: T4, human VEGF-D (human, UniProt O43915 93-201); assay: solid phase binding ELISA
T4 construct: also called hVEGF-D
T4 sequence (looked up): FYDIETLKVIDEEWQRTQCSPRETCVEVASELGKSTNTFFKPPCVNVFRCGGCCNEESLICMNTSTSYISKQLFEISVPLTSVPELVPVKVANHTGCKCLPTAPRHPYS
Protocol: as §1

VEGF = assay: cell-based or functional assay
[1] = molecular target: T5, recombinant human VEGF165 (human, UniProt P15692-4 27-191); assay: hVEGF165/hVEGFR1-Fc competition ELISA
T5 construct: also called hVEGF165; rhVEGF165
Target sequence in this assay (P15692 other isoform, or with tags, fused parts or gaps limits assumed): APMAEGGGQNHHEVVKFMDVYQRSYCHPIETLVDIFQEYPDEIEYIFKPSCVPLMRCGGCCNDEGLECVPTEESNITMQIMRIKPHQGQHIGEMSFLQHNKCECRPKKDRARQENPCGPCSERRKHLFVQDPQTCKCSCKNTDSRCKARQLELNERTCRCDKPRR

[2] = molecular target: T5, recombinant human VEGF165; assay: Biacore, periplasmic extract on hVEGF165 chip
Target sequence in this assay (P15692 other isoform, or with tags, fused parts or gaps limits assumed): as above

[3] = molecular target: T5, recombinant human VEGF165; assay: kd1; SPR Biacore T100, hVEGF165 on chip, Two State Reaction model
Protocol: Samples are injected for 2 min and allowed to dissociate up to 20 min at a flow rate of 45 μI/min. In between sample injections, the chip surface is regenerated with 100 mM HCl. HBS-EP+(Hepes buffer pH7.4+EDTA) is used as running buffer. Binding curves are fitted using a Two State Reaction model by Biacore T100 Evaluation Software v2.0.1.
^{(a)}Heterogeneous binding curve resulting in no 1:1 fit, curves are fitted using a Two State Reaction model by Biacore T100 Evaluation Software v2.0.1

[4] = molecular target: T5, recombinant human VEGF165; assay: Biacore, periplasmic extract on hVEGF165 chip, two phase decay fit
Target sequence in this assay (P15692 other isoform, or with tags, fused parts or gaps limits assumed): as above

[5] = molecular target: T5, recombinant human VEGF165; assay: ka1; SPR Biacore T100 on hVEGF165
Target sequence in this assay (P15692 other isoform, or with tags, fused parts or gaps limits assumed): as above

[6] = molecular target: T5, recombinant human VEGF165; assay: competition AlphaScreen, blocking of hVEGF165 binding to hVEGFR2-Fc
Target sequence in this assay (P15692 other isoform, or with tags, fused parts or gaps limits assumed): as above

[7] = molecular target: T5, recombinant human VEGF165; assay: as above; remark: listed apart in the source
Target sequence in this assay (P15692 other isoform, or with tags, fused parts or gaps limits assumed): as above

[8] = molecular target: T5, recombinant human VEGF165; assay: competition AlphaScreen, blocking of hVEGF165 binding to hVEGFR1-Fc
[9] = molecular target: T5, recombinant human VEGF165; assay: as above; remark: listed apart in the source
[10] = molecular target: T5, recombinant human VEGF165; assay: AlphaScreen competition, 0.05 nM hVEGF165 and 0.05 nM hVEGFR2-Fc; blocked: hVEGFR2-Fc
[11] = molecular target: T5, recombinant human VEGF165; assay: AlphaScreen competition, 0.05 nM hVEGF165 and 0.05 nM hVEGFR1-Fc; blocked: hVEGFR1-Fc
[12] = molecular target: T5, recombinant human VEGF165; assay: as above; remark: listed apart in the source

binding result (human PIGF): no binding (tested: 500 nM-32 pM)
binding result (human VEGF-B): no binding (tested: 500 nM-32 pM)
binding result (human VEGF-C): no binding (tested: 500 nM-32 pM)
binding result (human VEGF-D): no binding (tested: 500 nM-32 pM)
IC50 (nM), VEGF HUVEC Erk phosphorylation assay (VEGF): 0.37 nM
% inhibition [1]: 64%
IC50 [1]: 500 pM
Binding level (RU) [2]: 768 RU
koff [3]: 0.0086 s⁻¹
% fast [4]: 12%
B1: VEGFBII23B04 (VHH)
VHH: EVQLVESGGGLVQTGDSLRLSCEVSGRTFSSYSMGWFRQAQGKEREFVVAISKGGYKYDSVSLEGRFTISKDNAKNTVYLQINSLKPEDTAVYYCASSRAYGSSRLRLADTYEYWGQGTQVTVSS
notes: also called VEGFBII23B4; VEGFBII23B04 (wt)

kon [5]: 260000 M⁻¹ s⁻¹
IC50 (read off the curve) [6]: ~400 pM
IC50 (read off the curve) [7]: ~400 pM
IC50 (read off the curve) [8]: ~400 pM
IC50 (read off the curve) [9]: ~400 pM
IC50 (read off the curve) [10]: ~500 pM
IC50 (read off the curve) [11]: ~500 pM
IC50 (read off the curve) [12]: ~800 pM
B2: VEGFBII038 (VHH)
VHH: B1 VHH with E1D, T14P, D16G, E23A, V24A, Q41P, S60A, K71R, K86R, Q120L
notes: also called VEGFBII0038; VEGFBII00038
